Target: T1, MAPRE1 (native MS), Q15691
T1 chain: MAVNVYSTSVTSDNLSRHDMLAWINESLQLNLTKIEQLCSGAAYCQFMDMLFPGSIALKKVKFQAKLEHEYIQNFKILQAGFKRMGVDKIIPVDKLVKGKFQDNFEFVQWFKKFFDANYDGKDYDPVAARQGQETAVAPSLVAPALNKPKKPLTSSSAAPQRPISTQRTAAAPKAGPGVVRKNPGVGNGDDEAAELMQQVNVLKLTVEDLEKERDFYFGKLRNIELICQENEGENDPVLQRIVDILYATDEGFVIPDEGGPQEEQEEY
Experiment: native MS
Conditions: remark: other sources report otherwise

stoichiometry N: 2
B1: MAPRE1 (native MS), Q15691 1-268 (natural protein)
chain: MAVNVYSTSVTSDNLSRHDMLAWINESLQLNLTKIEQLCSGAAYCQFMDMLFPGSIALKKVKFQAKLEHEYIQNFKILQAGFKRMGVDKIIPVDKLVKGKFQDNFEFVQWFKKFFDANYDGKDYDPVAARQGQETAVAPSLVAPALNKPKKPLTSSSAAPQRPISTQRTAAAPKAGPGVVRKNPGVGNGDDEAAELMQQVNVLKLTVEDLEKERDFYFGKLRNIELICQENEGENDPVLQRIVDILYATDEGFVIPDEGGPQEEQEEY

— publication PMC11883961
